For the assay, the target named is T1, recombinant human acetylcholinesterase (rhAChE), cleaved protein from codon 33 to codon 574 (human, UniProt P22303 33-574).
T1 construct: range 33-574; Expressed in HEK 293-H cells, secreted, tag removed with his-TEV protease; also called purified rhAChE; human AChE
In words: co-crystal of rhAChE complexed with fasciculin-2, X-ray crystallography (PDB 4EY8). The method, then: A crystallization buffer 44 is provided. The preferred crystallization buffer 44 contains 15-21% polyethylene glycol (PEG) 3350 and 0.17-0.21M potassium nitrate. Crystals of rhAChE are grown by sitting drop vapor diffusion at 22° C. against the crystallization buffer 44. See Block 46. Clustered hexagonal rod-shaped crystals (20×20×600 µm) are typically nucleated within 5 days and grow to full size within 3 days. Once the crystals are full size, they are harvested and flash frozen using liquid nitrogen. See Block 48. The harvested crystals 10 can then be cut and subjected to X-ray crystallography and modeling in the traditional manner. See Block 50. Since the rhAChE crystals 10 are not complexed, the X-ray crystallography produces models that more accurately represent AChE in the human brain. Additionally, the active sites that are obfuscated by snake venom in the prior art are open and active.
Referring to FIG. 4 in conjunction with FIG. 1, it will be understood that in order to complex the rhAChE crystals 10, a small volume of the complexing ligand 52 is added to the crystallization buffer 44 to create a modified crystallization buffer 54. Crystals of complexed rhAChE are grown by sitting drop vapor diffusion against the modified crystallization buffer 54. The crystals are then grown, harvested and imaged in the manner previously described.

B1: fasciculin-2 (other)
chain: TMCYSHTTTSRAILTNCGENSCYRKSRRHPPKMVLGRGCGCPPGDDNLEVKCCTSPDKCNY
notes: Used as the complexing ligand in rhAChE crystals; also called snake venom fasciculin-2
In the case of B1, the binding result was “binds”.

Source of the values: patent US10544421 (NEW YORK STRUCTURAL BIOLOGY CENTER, dated 2020).
